Data as given in publication PMC3210417 (Nature structural & molecular biology, 2011).

T1: Epl1 (residues 51–380, EPcA domain) of Piccolo v07 (S. cerevisiae, UniProt P43572 51-380)
T1 sequence: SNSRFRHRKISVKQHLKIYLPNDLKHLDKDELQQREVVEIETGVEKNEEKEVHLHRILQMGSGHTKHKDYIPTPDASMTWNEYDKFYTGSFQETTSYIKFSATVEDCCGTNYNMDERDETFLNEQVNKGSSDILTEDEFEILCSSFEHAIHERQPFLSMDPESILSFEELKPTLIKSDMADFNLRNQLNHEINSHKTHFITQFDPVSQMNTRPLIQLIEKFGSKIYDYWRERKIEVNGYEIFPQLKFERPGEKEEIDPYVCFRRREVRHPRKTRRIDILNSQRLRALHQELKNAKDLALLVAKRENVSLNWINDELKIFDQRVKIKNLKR


Key:
[1] = target: recombinant nucleosome core particle formed from full-length Xenopus recombinant histones and mouse (Xenopus); assay: negative-stain EM of single particles
[2] = target: T1, Epl1 (residues 51–380, EPcA domain) of …; assay: AUC

stoichiometry N [2]	Molecule	percent of NuA4 particles bound to NCP [1] [%]	stoichiometry N [1]
	NuA4 histone acetyltransferase complex (from UniProt P43572;Q08649;P38806;Q06337;P38811;Q12432;P39995;P53911;P53201;P53930;P60010;P80428;P47128)	5	1
1	Yng2 (residues 2–218, without PHD domain) of Piccolo v07 (domain or fragment) DPSLVLEQTIQDVSNLPSEFRYLLEEIGSNDLKLIEEKKKYEQKESQIHKFIRQQGSIPKHPQEDGLDKEIKESLLKCQSLQREKCVLANTALFLIARHLNKLEKNIALLEEDGVLAPVEEDGDMDSAAEASRESSVVSNSSVKKRRAASSSGSVPPTLKKKKTSRTSKLQNEIDVSSREKSVTPVSPSIEKKIARTKEFKNSRNGKGQNGSPENEE		
1	Esa1 (residues 2–445), 6 × His-tagged, of Piccolo v07 (enzyme) SHDGKEEPGIAKKINSVDDIIIKCQCWVQKNDEERLAEILSINTRKAPPKFYVHYVNYNKRLDEWITTDRINLDKEVLYPKLKATDEDNKKQKKKKATNTSETPQDSLQDGVDGFSRENTDVMDLDNLNVQGIKDENISHEDEIKKLRTSGSMTQNPHEVARVRNLNRIIMGKYEIEPWYFSPYPIELTDEDFIYIDDFTLQYFGSKKQYERYRKKCTLRHPPGNEIYRDDYVSFFEIDGRKQRTWCRNLCLLSKLFLDHKTLYYDVDPFLFYCMTRRDELGHHLVGYFSKEKESADGYNVACILTLPQYQRMGYGKLLIEFSYELSKKENKVGSPEKPLSDLGLLSYRAYWSDTLITLLVEHQKEITIDEISSMTSMTTTDILHTAKTLNILRYYKGQHIIFLNEDILDRYNRLKAKKRRTIDPNRLIWKPPVFTASQLRFAW		
